Biological target: SNARE complex including SNAP-25, syntaxin and VAMP2 (endogenous, in PC12 cells) (rat (PC12 cells, derived from rats), UniProt P60881 1-206; P32851 1-288; P63045 2-116)
Test: cell-based or functional assay

Sequence of SNARE complex including SNAP-25, syntaxin and VAMP2 (endogenous, in PC12 cells) (P60881 whole entry, chain 1 of 3): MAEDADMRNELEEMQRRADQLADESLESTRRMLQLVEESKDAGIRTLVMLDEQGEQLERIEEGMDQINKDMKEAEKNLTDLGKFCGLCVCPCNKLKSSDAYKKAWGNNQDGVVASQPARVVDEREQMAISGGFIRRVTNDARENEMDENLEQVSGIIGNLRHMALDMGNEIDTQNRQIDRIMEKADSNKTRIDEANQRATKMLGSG
Sequence of SNARE complex including SNAP-25, syntaxin and VAMP2 (endogenous, in PC12 cells) (P32851 whole entry, chain 2 of 3): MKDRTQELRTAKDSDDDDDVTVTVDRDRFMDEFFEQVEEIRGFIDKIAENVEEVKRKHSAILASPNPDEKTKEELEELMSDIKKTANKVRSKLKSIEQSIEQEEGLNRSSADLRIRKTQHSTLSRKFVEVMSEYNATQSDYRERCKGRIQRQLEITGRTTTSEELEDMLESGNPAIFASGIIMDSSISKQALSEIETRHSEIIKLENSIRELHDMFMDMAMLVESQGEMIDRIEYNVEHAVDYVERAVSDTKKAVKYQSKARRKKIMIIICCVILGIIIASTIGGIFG
Sequence of SNARE complex including SNAP-25, syntaxin and VAMP2 (endogenous, in PC12 cells) (P63045 2-116, chain 3 of 3): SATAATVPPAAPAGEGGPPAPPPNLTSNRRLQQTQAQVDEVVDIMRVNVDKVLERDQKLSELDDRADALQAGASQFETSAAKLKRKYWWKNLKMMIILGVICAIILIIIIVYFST

| Binder | neurotransmitter (norepinephrine) secretion rate in PC12 cells compared to an untreated group, peptide at 20 µM |
| --- | --- |
| RRWRRWNRFNRRRCRRRLQQTQAQVDEVV | 56% |
| RRLQQTQAQVDEVVDIM [P4 peptide, h-VAMP2 (30-46 aa)] | 75% |

Source: patent US20250325468A1 (MEDYTOX, published 2025)
